What was measured:
[1] = target: human FGFR1c + KLB receptor complex on HEK293 iLite FGF21 reporter cells (human, UniProt P11362 22-822; Q86Z14 1-1044); assay: cell-based or functional assay
[2] = target: cell surface receptor composed of FGFR1c and co-receptor beta-Klotho (KLB) (human, UniProt P11362 22-822; Q86Z14 1-1044); assay: cell-based or functional assay; as to Mean E max, Luciferase reporter gene assay: reference of the scale not given here
Chain of cell surface receptor composed of FGFR1c and co-receptor beta-Klotho (KLB) (P11362 22-822, chain 1 of 2): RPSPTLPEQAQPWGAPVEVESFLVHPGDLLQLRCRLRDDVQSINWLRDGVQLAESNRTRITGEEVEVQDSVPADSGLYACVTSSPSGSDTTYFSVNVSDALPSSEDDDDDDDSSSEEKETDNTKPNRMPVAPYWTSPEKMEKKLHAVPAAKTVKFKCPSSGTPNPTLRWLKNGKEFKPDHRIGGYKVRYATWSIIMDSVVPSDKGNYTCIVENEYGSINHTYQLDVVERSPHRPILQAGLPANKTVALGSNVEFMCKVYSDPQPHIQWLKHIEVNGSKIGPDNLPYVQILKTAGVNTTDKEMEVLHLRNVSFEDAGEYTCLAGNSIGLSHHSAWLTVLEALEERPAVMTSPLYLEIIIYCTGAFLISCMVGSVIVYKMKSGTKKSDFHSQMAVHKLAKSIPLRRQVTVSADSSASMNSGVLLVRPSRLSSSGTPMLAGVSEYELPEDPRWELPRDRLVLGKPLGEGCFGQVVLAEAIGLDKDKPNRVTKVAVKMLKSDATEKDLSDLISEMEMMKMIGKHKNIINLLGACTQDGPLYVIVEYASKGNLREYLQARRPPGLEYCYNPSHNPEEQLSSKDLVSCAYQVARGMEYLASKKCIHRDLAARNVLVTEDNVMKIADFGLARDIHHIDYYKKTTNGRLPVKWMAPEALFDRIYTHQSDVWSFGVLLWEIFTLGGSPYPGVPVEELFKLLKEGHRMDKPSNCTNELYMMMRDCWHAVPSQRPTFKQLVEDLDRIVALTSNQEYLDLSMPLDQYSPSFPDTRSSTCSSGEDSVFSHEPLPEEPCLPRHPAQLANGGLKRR
Chain of cell surface receptor composed of FGFR1c and co-receptor beta-Klotho (KLB) (Q86Z14 whole entry, chain 2 of 2): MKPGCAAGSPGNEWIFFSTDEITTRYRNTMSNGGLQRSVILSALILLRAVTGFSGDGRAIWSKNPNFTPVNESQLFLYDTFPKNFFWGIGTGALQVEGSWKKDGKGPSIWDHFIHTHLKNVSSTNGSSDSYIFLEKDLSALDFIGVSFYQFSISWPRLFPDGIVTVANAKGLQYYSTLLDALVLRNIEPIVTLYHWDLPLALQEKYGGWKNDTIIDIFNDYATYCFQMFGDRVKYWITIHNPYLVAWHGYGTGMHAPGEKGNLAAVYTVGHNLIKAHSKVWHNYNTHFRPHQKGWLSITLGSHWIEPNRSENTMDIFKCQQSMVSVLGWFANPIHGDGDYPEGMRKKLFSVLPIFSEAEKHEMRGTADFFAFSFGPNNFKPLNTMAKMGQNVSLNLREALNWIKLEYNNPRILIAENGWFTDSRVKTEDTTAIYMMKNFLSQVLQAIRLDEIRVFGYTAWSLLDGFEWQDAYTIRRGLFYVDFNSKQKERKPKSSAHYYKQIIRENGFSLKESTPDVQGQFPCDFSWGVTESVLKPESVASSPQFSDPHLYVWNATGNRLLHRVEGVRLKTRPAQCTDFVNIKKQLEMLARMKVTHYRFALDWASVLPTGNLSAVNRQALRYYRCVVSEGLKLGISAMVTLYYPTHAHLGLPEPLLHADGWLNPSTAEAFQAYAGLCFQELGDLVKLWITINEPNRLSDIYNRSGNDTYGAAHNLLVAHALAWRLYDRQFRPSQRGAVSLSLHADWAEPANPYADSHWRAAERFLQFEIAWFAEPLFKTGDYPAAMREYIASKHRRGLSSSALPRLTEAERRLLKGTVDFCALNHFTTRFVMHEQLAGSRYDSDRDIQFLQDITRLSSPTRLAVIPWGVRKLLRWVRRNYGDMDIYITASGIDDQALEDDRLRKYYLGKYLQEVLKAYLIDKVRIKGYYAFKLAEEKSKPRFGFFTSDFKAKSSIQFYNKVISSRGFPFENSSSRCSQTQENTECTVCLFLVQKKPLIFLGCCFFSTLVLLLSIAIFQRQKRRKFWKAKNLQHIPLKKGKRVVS

Chain of human FGFR1c + KLB receptor complex on HEK293 iLite FGF21 reporter cells (P11362 22-822, chain 1 of 2): as the sequence (P11362 22-822, chain 1 of 2) above
Chain of human FGFR1c + KLB receptor complex on HEK293 iLite FGF21 reporter cells (Q86Z14 whole entry, chain 2 of 2): as the sequence (Q86Z14 whole entry, chain 2 of 2) above

| Binder | EC50 [1] [nM] | Emax [1] [%] | Mean E max, Luciferase reporter gene assay [2] [%] | Mean EC50, Luciferase reporter gene assay [2] [nM] |
| --- | --- | --- | --- | --- |
| Ab0461 (antibody, IgG4, V domains shown) VH: QVTLKESGPVLVKPTETLTLTCTVSGFSLSNARVGVSWIRQPPGKALEWLAHIFSNDEKSYSTSLKSRLTISKDTSKSQVVLTMTNMDPVDTATYYCARSVVTGGYYYEGMDVWGQGTTVTVSS VL: SYVLTQPPSVSVAPGQTARITCGGSNIGSESVHWYQQKPGQAPVLVVYEESDRPSGIPERFSGSNSGNTATLTISRVEAGDEADYYCQVWEGESDHVVFGGGTKLTVLG | 0.02 | 1390 | – | – |
| 16H7 light chain variant D49H (antibody, IgG4, V domains shown) VH: not shown VL: SYVLTQPPSVSVAPGQTARITCGGNNIGSESVHWYQQKPGQAPVLVVYHDSDRPSGIPERFSGSNSGNTATLTISRVEAGDEADYYCQVWDGNSDHVVFGGGTKLTVLG | – | – | 90 | 0.183 |
| 16H7 light chain variant V32P (antibody, IgG4, V domains shown) VH: not shown VL: SYVLTQPPSVSVAPGQTARITCGGNNIGSESPHWYQQKPGQAPVLVVYDDSDRPSGIPERFSGSNSGNTATLTISRVEAGDEADYYCQVWDGNSDHVVFGGGTKLTVLG | – | – | 85 | 0.164 |
| 16H7 light chain variant D95R (antibody, IgG4, V domains shown) VH: not shown VL: SYVLTQPPSVSVAPGQTARITCGGNNIGSESVHWYQQKPGQAPVLVVYDDSDRPSGIPERFSGSNSGNTATLTISRVEAGDEADYYCQVWDGNSRHVVFGGGTKLTVLG | – | – | 4 | – |
| 16H7 light chain variant D95P (antibody, IgG4, V domains shown) VH: not shown VL: SYVLTQPPSVSVAPGQTARITCGGNNIGSESVHWYQQKPGQAPVLVVYDDSDRPSGIPERFSGSNSGNTATLTISRVEAGDEADYYCQVWDGNSPHVVFGGGTKLTVLG | – | – | 4 | – |
| 16H7 light chain variant D95W (antibody, IgG4, V domains shown) VH: not shown VL: SYVLTQPPSVSVAPGQTARITCGGNNIGSESVHWYQQKPGQAPVLVVYDDSDRPSGIPERFSGSNSGNTATLTISRVEAGDEADYYCQVWDGNSWHVVFGGGTKLTVLG | – | – | 5 | – |
| 16H7 light chain variant D95N (antibody, IgG4, V domains shown) VH: not shown VL: SYVLTQPPSVSVAPGQTARITCGGNNIGSESVHWYQQKPGQAPVLVVYDDSDRPSGIPERFSGSNSGNTATLTISRVEAGDEADYYCQVWDGNSNHVVFGGGTKLTVLG | – | – | 78 | 1.03 |
| 16H7 light chain variant D95E (antibody, IgG4, V domains shown) VH: not shown VL: SYVLTQPPSVSVAPGQTARITCGGNNIGSESVHWYQQKPGQAPVLVVYDDSDRPSGIPERFSGSNSGNTATLTISRVEAGDEADYYCQVWDGNSEHVVFGGGTKLTVLG | – | – | 44 | 8.04 |
| Ab0463 (antibody, IgG4, V domains shown) VH: QVTLKESGPVLVKPTETLTLTCTVSGFSLSYARVGVSWIRQPPGKALEWLAHIFSNDEKSYSTSLKSRLTISKDTSKSQVVLTMTNMDPVDTATYYCARSVVTGGYYYEGMDVWGQGTTVTVSS VL: SYVLTQPPSVSVAPGQTARITCGGSNIGSESVHWYQQKPGQAPVLVVYEESDRPSGIPERFSGSNSGNTATLTISRVEAGDEADYYCQVWEGESDHVVFGGGTKLTVLG | 0.05 | 951 | – | – |
| Ab0462 (antibody, IgG4, V domains shown) VH: QVTLKESGPVLVKPTETLTLTCTVSGFSLTNARVGVSWIRQPPGKALEWLAHIFSNDEKSYSTSLKSRLTISKDTSKSQVVLTMTNMDPVDTATYYCARSVVTGGYYYEGMDVWGQGTTVTVSS VL: SYVLTQPPSVSVAPGQTARITCGGSNIGSESVHWYQQKPGQAPVLVVYEESDRPSGIPERFSGSNSGNTATLTISRVEAGDEADYYCQVWEGESDHVVFGGGTKLTVLG | 0.03 | 1340 | – | – |
| 16H7 light chain variant H33P (antibody, IgG4, V domains shown) VH: not shown VL: SYVLTQPPSVSVAPGQTARITCGGNNIGSESVPWYQQKPGQAPVLVVYDDSDRPSGIPERFSGSNSGNTATLTISRVEAGDEADYYCQVWDGNSDHVVFGGGTKLTVLG | – | – | 90 | 0.253 |
| 16H7 light chain variant D49E (antibody, IgG4, V domains shown) VH: not shown VL: SYVLTQPPSVSVAPGQTARITCGGNNIGSESVHWYQQKPGQAPVLVVYEDSDRPSGIPERFSGSNSGNTATLTISRVEAGDEADYYCQVWDGNSDHVVFGGGTKLTVLG | – | – | 87 | 0.193 |
| 16H7 light chain variant D49T (antibody, IgG4, V domains shown) VH: not shown VL: SYVLTQPPSVSVAPGQTARITCGGNNIGSESVHWYQQKPGQAPVLVVYTDSDRPSGIPERFSGSNSGNTATLTISRVEAGDEADYYCQVWDGNSDHVVFGGGTKLTVLG | – | – | 89 | 0.107 |
| 16H7 light chain variant D95G (antibody, IgG4, V domains shown) VH: not shown VL: SYVLTQPPSVSVAPGQTARITCGGNNIGSESVHWYQQKPGQAPVLVVYDDSDRPSGIPERFSGSNSGNTATLTISRVEAGDEADYYCQVWDGNSGHVVFGGGTKLTVLG | – | – | 47 | 6.56 |
| 16H7 light chain variant H33W (antibody, IgG4, V domains shown) VH: not shown VL: SYVLTQPPSVSVAPGQTARITCGGNNIGSESVWWYQQKPGQAPVLVVYDDSDRPSGIPERFSGSNSGNTATLTISRVEAGDEADYYCQVWDGNSDHVVFGGGTKLTVLG | – | – | 80 | 0.666 |
| 16H7 light chain variant D95V (antibody, IgG4, V domains shown) VH: not shown VL: SYVLTQPPSVSVAPGQTARITCGGNNIGSESVHWYQQKPGQAPVLVVYDDSDRPSGIPERFSGSNSGNTATLTISRVEAGDEADYYCQVWDGNSVHVVFGGGTKLTVLG | – | – | 3 | – |
| 16H7 light chain variant D95C (antibody, IgG4, V domains shown) VH: not shown VL: SYVLTQPPSVSVAPGQTARITCGGNNIGSESVHWYQQKPGQAPVLVVYDDSDRPSGIPERFSGSNSGNTATLTISRVEAGDEADYYCQVWDGNSCHVVFGGGTKLTVLG | – | – | 4 | – |
| 16H7 light chain variant H33K (antibody, IgG4, V domains shown) VH: not shown VL: SYVLTQPPSVSVAPGQTARITCGGNNIGSESVKWYQQKPGQAPVLVVYDDSDRPSGIPERFSGSNSGNTATLTISRVEAGDEADYYCQVWDGNSDHVVFGGGTKLTVLG | – | – | 96 | 0.174 |
| 16H7 light chain variant H33R (antibody, IgG4, V domains shown) VH: not shown VL: SYVLTQPPSVSVAPGQTARITCGGNNIGSESVRWYQQKPGQAPVLVVYDDSDRPSGIPERFSGSNSGNTATLTISRVEAGDEADYYCQVWDGNSDHVVFGGGTKLTVLG | – | – | 68 | 2.19 |
| Ab0464 (antibody, IgG4, V domains shown) VH: QVTLKESGPVLVKPTETLTLTCTVSGFSLTYARVGVSWIRQPPGKALEWLAHIFSNDEKSYSTSLKSRLTISKDTSKSQVVLTMTNMDPVDTATYYCARSVVTGGYYYEGMDVWGQGTTVTVSS VL: SYVLTQPPSVSVAPGQTARITCGGSNIGSESVHWYQQKPGQAPVLVVYEESDRPSGIPERFSGSNSGNTATLTISRVEAGDEADYYCQVWEGESDHVVFGGGTKLTVLG | 0.02 | 910 | – | – |
| 16H7 light chain variant D95F (antibody, IgG4, V domains shown) VH: not shown VL: SYVLTQPPSVSVAPGQTARITCGGNNIGSESVHWYQQKPGQAPVLVVYDDSDRPSGIPERFSGSNSGNTATLTISRVEAGDEADYYCQVWDGNSFHVVFGGGTKLTVLG | – | – | -1 | – |
| 16H7 light chain variant D49Y (antibody, IgG4, V domains shown) VH: not shown VL: SYVLTQPPSVSVAPGQTARITCGGNNIGSESVHWYQQKPGQAPVLVVYYDSDRPSGIPERFSGSNSGNTATLTISRVEAGDEADYYCQVWDGNSDHVVFGGGTKLTVLG | – | – | 99 | 0.151 |
| 16H7 light chain variant D49N (antibody, IgG4, V domains shown) VH: not shown VL: SYVLTQPPSVSVAPGQTARITCGGNNIGSESVHWYQQKPGQAPVLVVYNDSDRPSGIPERFSGSNSGNTATLTISRVEAGDEADYYCQVWDGNSDHVVFGGGTKLTVLG | – | – | 108 | 0.19 |
| 16H7 light chain variant S94K (antibody, IgG4, V domains shown) VH: not shown VL: SYVLTQPPSVSVAPGQTARITCGGNNIGSESVHWYQQKPGQAPVLVVYDDSDRPSGIPERFSGSNSGNTATLTISRVEAGDEADYYCQVWDGNKDHVVFGGGTKLTVLG | – | – | 104 | 0.185 |
| 16H7 light chain variant D95S (antibody, IgG4, V domains shown) VH: not shown VL: SYVLTQPPSVSVAPGQTARITCGGNNIGSESVHWYQQKPGQAPVLVVYDDSDRPSGIPERFSGSNSGNTATLTISRVEAGDEADYYCQVWDGNSSHVVFGGGTKLTVLG | – | – | 37 | – |
| 16H7 light chain variant D50K (antibody, IgG4, V domains shown) VH: not shown VL: SYVLTQPPSVSVAPGQTARITCGGNNIGSESVHWYQQKPGQAPVLVVYDKSDRPSGIPERFSGSNSGNTATLTISRVEAGDEADYYCQVWDGNSDHVVFGGGTKLTVLG | – | – | 109 | – |
| 16H7 light chain variant D49A (antibody, IgG4, V domains shown) VH: not shown VL: SYVLTQPPSVSVAPGQTARITCGGNNIGSESVHWYQQKPGQAPVLVVYADSDRPSGIPERFSGSNSGNTATLTISRVEAGDEADYYCQVWDGNSDHVVFGGGTKLTVLG | – | – | 100 | 0.106 |

Source: patent US20220010021A1 (Sanofi, published 2022)
